Measured values taken from publication PMC6555819, “Comprehensive study of nuclear receptor DNA binding provides a revised framework for understanding receptor specificity”.

B1: NRC3_wobSeed109_DR4_G25C_o1 (dsDNA)
DNA 1: GCCGTCCAAGGTCATAGGAGGTCACTGAAGACAGATGCGATTGACAGCGTAGAATGAAGG
DNA 2: CCTTCATTCTACGCTGTCAATCGCATCTGTCTTCAGTGACCTCCTATGACCTTGGACGGC
B2: NRC3_wobSeed109_DR4_G17A_o1 (dsDNA)
DNA 1: GCCGTCCAAGGTCATAAGAGGTCAGTGAAGACAGATGCGATTGACAGCGTAGAATGAAGG
DNA 2: CCTTCATTCTACGCTGTCAATCGCATCTGTCTTCACTGACCTCTTATGACCTTGGACGGC
B3: NRC3_wobSeed9_DR0_T17G_o1 (dsDNA)
DNA 1: GCATCTCTAGGTAAAGGTCAGTGAAAGATCGATAGAGCGATTGACAGCGTAGAATGAAGG
DNA 2: CCTTCATTCTACGCTGTCAATCGCTCTATCGATCTTTCACTGACCTTTACCTAGAGATGC
B4: NRC3_wobSeed117_DR4_G26T_o1 (dsDNA)
DNA 1: GCCGTCAAAGTTCAACTAAGGTAACTTAAAGCACGCGCGATTGACAGCGTAGAATGAAGG
DNA 2: CCTTCATTCTACGCTGTCAATCGCGCGTGCTTTAAGTTACCTTAGTTGAACTTTGACGGC
B5: NRC3_wobSeed117_DR4_G20T_o1 (dsDNA)
DNA 1: GCCGTCAAAGTTCAACTAATGTAACGTAAAGCACGCGCGATTGACAGCGTAGAATGAAGG
DNA 2: CCTTCATTCTACGCTGTCAATCGCGCGTGCTTTACGTTACATTAGTTGAACTTTGACGGC
B6: NRC3_wobSeed99_DR4_G27A_o1 (dsDNA)
DNA 1: GCTCTCGGAGGACACGAAAGGTCAGAACTCGACATCGCGATTGACAGCGTAGAATGAAGG
DNA 2: CCTTCATTCTACGCTGTCAATCGCGATGTCGAGTTCTGACCTTTCGTGTCCTCCGAGAGC
B7: NRC3_wobSeed49_DR2_A5C_o1 (dsDNA)
DNA 1: GCCACACTAGGTCAAGAGGTCAAAGTCCGCTTCCCGGCGATTGACAGCGTAGAATGAAGG
DNA 2: CCTTCATTCTACGCTGTCAATCGCCGGGAAGCGGACTTTGACCTCTTGACCTAGTGTGGC
B8: NRC3_wobSeed5_DR0_G23T_o1 (dsDNA)
DNA 1: GCCCTTACGGGTCAAGGTTATATCACGGGTGGTACGGCGATTGACAGCGTAGAATGAAGG
DNA 2: CCTTCATTCTACGCTGTCAATCGCCGTACCACCCGTGATATAACCTTGACCCGTAAGGGC
B9: NRC3_wobSeed138_DR5_T5C_o1 (dsDNA)
DNA 1: GCGACACAGGGTCAGCTAGAGGCCAGAGTATGGAAAGCGATTGACAGCGTAGAATGAAGG
DNA 2: CCTTCATTCTACGCTGTCAATCGCTTTCCATACTCTGGCCTCTAGCTGACCCTGTGTCGC
B10: NRC3_wobSeed138_DR5_A6C_o1 (dsDNA)
DNA 1: GCGATCCAGGGTCAGCTAGAGGCCAGAGTATGGAAAGCGATTGACAGCGTAGAATGAAGG
DNA 2: CCTTCATTCTACGCTGTCAATCGCTTTCCATACTCTGGCCTCTAGCTGACCCTGGATCGC
B11: NRC3_wobSeed97_DR4_A6T_o1 (dsDNA)
DNA 1: GCCAATCTAGGTCACGAAAGGTCAAAGTCGAATGACGCGATTGACAGCGTAGAATGAAGG
DNA 2: CCTTCATTCTACGCTGTCAATCGCGTCATTCGACTTTGACCTTTCGTGACCTAGATTGGC
B12: NRC3_wobSeed46_DR1_C7A_o1 (dsDNA)
DNA 1: GCTTACAAAGGTGAAAGGTCGTTGATGCACGCCTTGGCGATTGACAGCGTAGAATGAAGG
DNA 2: CCTTCATTCTACGCTGTCAATCGCCAAGGCGTGCATCAACGACCTTTCACCTTTGTAAGC
B13: NRC3_wobSeed13_DR0_G17C_o1 (dsDNA)
DNA 1: GCCGTCCAAGGTCAAGCTCAGTGAAAGAGACTCGAAGCGATTGACAGCGTAGAATGAAGG
DNA 2: CCTTCATTCTACGCTGTCAATCGCTTCGAGTCTCTTTCACTGAGCTTGACCTTGGACGGC
B14: NRC3_wobSeed13_DR0_C19G_o1 (dsDNA)
DNA 1: GCCGTCCAAGGTCAAGGTGAGTGAAAGAGACTCGAAGCGATTGACAGCGTAGAATGAAGG
DNA 2: CCTTCATTCTACGCTGTCAATCGCTTCGAGTCTCTTTCACTCACCTTGACCTTGGACGGC
B15: NRC3_wobSeed58_DR2_A22T_o1 (dsDNA)
DNA 1: GCATCGAAAGGTCGTGAGGTGTGTATACAGAAAGGCGCGATTGACAGCGTAGAATGAAGG
DNA 2: CCTTCATTCTACGCTGTCAATCGCGCCTTTCTGTATACACACCTCACGACCTTTCGATGC
B16: NRC3_wobSeed125_DR5_A7G_o1 (dsDNA)
DNA 1: GCCCTTGCGGGTCACTGACAGGTTATAGCATTTGGAGCGATTGACAGCGTAGAATGAAGG
DNA 2: CCTTCATTCTACGCTGTCAATCGCTCCAAATGCTATAACCTGTCAGTGACCCGCAAGGGC
B17: NRC3_wobSeed74_DR3_C13T_o1 (dsDNA)
DNA 1: GCTCTAGTTGGTTACGGAGGTCACACACGACGGGTAGCGATTGACAGCGTAGAATGAAGG
DNA 2: CCTTCATTCTACGCTGTCAATCGCTACCCGTCGTGTGTGACCTCCGTAACCAACTAGAGC
B18: NRC3_wobSeed85_DR3_G17T_o1 (dsDNA)
DNA 1: GCCGTCCAAGGTCAGATAGGTCAGTGAATGCCGAGTGCGATTGACAGCGTAGAATGAAGG
DNA 2: CCTTCATTCTACGCTGTCAATCGCACTCGGCATTCACTGACCTATCTGACCTTGGACGGC
B19: NRC3_wobSeed41_DR1_T8G_o1 (dsDNA)
DNA 1: GCATATGGAGGTTAAGGGTCATTCAGGTTGGTTCGCGCGATTGACAGCGTAGAATGAAGG
DNA 2: CCTTCATTCTACGCTGTCAATCGCGCGAACCAACCTGAATGACCCTTAACCTCCATATGC
B20: NRC3_wobSeed98_DR4_G11T_o1 (dsDNA)
DNA 1: GCACTAGTTGTTCAGCTGAGGTCACACACAATTCGGGCGATTGACAGCGTAGAATGAAGG
DNA 2: CCTTCATTCTACGCTGTCAATCGCCCGAATTGTGTGTGACCTCAGCTGAACAACTAGTGC
B21: NRC3_wobSeed30_DR1_G7A_o1 (dsDNA)
DNA 1: GCACTAACAGGCCAAGGGTCACTCAAGATTAGTCCGGCGATTGACAGCGTAGAATGAAGG
DNA 2: CCTTCATTCTACGCTGTCAATCGCCGGACTAATCTTGAGTGACCCTTGGCCTGTTAGTGC
B22: NRC3_wobSeed17_DR0_A24T_o1 (dsDNA)
DNA 1: GCATATGTAGGTTAGGGTCATTCTGAAAGTAGGGAAGCGATTGACAGCGTAGAATGAAGG
DNA 2: CCTTCATTCTACGCTGTCAATCGCTTCCCTACTTTCAGAATGACCCTAACCTACATATGC
B23: NRC3_wobSeed28_DR1_T8A_o1 (dsDNA)
DNA 1: GCCCTACAGGGCCAAAGGTCATTGATTCCAATGCTCGCGATTGACAGCGTAGAATGAAGG
DNA 2: CCTTCATTCTACGCTGTCAATCGCGAGCATTGGAATCAATGACCTTTGGCCCTGTAGGGC
B24: NRC3_wobSeed28_DR1_T22G_o1 (dsDNA)
DNA 1: GCCCTACTGGGCCAAAGGTCAGTGATTCCAATGCTCGCGATTGACAGCGTAGAATGAAGG
DNA 2: CCTTCATTCTACGCTGTCAATCGCGAGCATTGGAATCACTGACCTTTGGCCCAGTAGGGC

target: RARa:RXRa (Homo sapiens, UniProt P10276;P19793 full;full); assay: no ligand; PBM; 270 nM : 90 nM RXRa; PBS pH 7.4, 2% milk, 0.02% Triton X-100, 1 mM DTT, BSA, 0.4 mg/ml salmon testes DNA; conditions: tags: His kept;His cleaved; copies: 1;1; label: surface-attached array probe
Sequence (P10276 whole entry, chain 1 of 2): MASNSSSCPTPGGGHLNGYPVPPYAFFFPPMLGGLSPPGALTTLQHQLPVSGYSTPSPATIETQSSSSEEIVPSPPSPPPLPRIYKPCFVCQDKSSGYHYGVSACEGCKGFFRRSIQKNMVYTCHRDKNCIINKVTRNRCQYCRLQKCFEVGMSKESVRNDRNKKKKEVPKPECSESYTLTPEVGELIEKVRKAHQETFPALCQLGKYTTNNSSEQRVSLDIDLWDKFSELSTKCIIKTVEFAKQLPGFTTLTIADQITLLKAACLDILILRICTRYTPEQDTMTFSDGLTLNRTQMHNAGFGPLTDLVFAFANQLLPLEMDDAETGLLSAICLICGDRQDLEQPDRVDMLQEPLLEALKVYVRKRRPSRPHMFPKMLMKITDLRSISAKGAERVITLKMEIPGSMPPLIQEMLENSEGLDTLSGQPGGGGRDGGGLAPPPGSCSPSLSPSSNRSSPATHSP
Sequence (P19793 whole entry, chain 2 of 2): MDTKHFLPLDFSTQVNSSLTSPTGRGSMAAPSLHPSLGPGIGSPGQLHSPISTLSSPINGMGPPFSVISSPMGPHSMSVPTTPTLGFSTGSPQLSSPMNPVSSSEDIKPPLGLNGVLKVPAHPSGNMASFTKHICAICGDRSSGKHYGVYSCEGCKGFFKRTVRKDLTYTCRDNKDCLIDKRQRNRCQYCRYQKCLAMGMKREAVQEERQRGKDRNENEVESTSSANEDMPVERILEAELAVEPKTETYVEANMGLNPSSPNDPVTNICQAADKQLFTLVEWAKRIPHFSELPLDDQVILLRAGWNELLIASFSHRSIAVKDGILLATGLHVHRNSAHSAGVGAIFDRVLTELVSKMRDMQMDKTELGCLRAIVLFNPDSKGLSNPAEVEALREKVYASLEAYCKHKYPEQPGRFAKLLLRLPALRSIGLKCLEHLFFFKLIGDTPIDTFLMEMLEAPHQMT
In short: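 Ligand-free nuclear receptor dimers were bound for 1 h to custom Agilent 4×180K protein-binding microarrays. Detection used antibodies against each partner (one per run). Binding z-scores rest on regression-normalized fluorescence, with random background probes as the reference.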

First: B1
Second: B2
The binding signal of the first is higher: 7.71 PBM z-score against 500 random probes for the first, 7.18 PBM z-score against 500 random probes for the second.

Going from B3 to B4, the binding signal falls from 4.31 PBM z-score against 500 random probes to 4.28 PBM z-score against 500 random probes.

Compared with B5, B6 is higher in binding signal: 4.13 PBM z-score against 500 random probes for the first, 4.35 PBM z-score against 500 random probes for the second.

Going from B7 to B8, the binding signal falls from 8.44 PBM z-score against 500 random probes to 4.39 PBM z-score against 500 random probes.

First: B9
Second: B10
The binding signal of the first is higher: 4.25 PBM z-score against 500 random probes for the first, 4.15 PBM z-score against 500 random probes for the second.

Compared with B11, B12 is lower in binding signal: 8.17 PBM z-score against 500 random probes for the first, 7.64 PBM z-score against 500 random probes for the second.

Compared with B13, B14 is lower in binding signal: 4.6 PBM z-score against 500 random probes for the first, 4.49 PBM z-score against 500 random probes for the second.

Compared with B15, B16 is higher in binding signal: 4.09 PBM z-score against 500 random probes for the first, 4.21 PBM z-score against 500 random probes for the second.

Compared with B17, B18 is lower in binding signal: 4.41 PBM z-score against 500 random probes for the first, 4.18 PBM z-score against 500 random probes for the second.

First: B19
Second: B20
The binding signal of the first is higher: 7.62 PBM z-score against 500 random probes for the first, 4.63 PBM z-score against 500 random probes for the second.

First: B21
Second: B22
The binding signal of the first is lower: 4.53 PBM z-score against 500 random probes for the first, 4.56 PBM z-score against 500 random probes for the second.

Going from B23 to B24, the binding signal falls from 7.45 PBM z-score against 500 random probes to 4.44 PBM z-score against 500 random probes.
